Data as given in publication PMC4158700.

Tests used:
[1] = molecular target: recombinant wild type factor XI zymogen (fXIWT) (human); test: non-reducing SDS-PAGE
[2] = molecular target: recombinant factor XI zymogen with Arg184 replaced with Gly (fXI-Gly184) (human); test: non-reducing SDS-PAGE
[3] = molecular target: factor XIa with Arg184 replaced with Gly (fXIa-Gly184) (human) (UniProt P03951); test: numerical fitting of full progress curves of fIX cleavage
[4] = molecular target: factor XIa with Ile183, Arg184 and Asp185 replaced with alanine (fXIa-Ala183-185) (human) (UniProt P03951); test: as above
[5] = molecular target: factor XIa with Arg184 replaced with Gly (fXIa-Gly184) (human) (UniProt P03951)
[6] = molecular target: factor XIa with Ile183, Arg184 and Asp185 replaced with alanine (fXIa-Ala183-185) (human) (UniProt P03951)
[7] = molecular target: plasma fXIa with the active site irreversibly blocked by FPR-CMK (UniProt P03951); test: SPR
[8] = molecular target: recombinant wild type factor XIa (fXIaWT) (human) (UniProt P03951); test: inhibition of chromogenic substrate
[9] = molecular target: factor XIa with Arg184 replaced with Gly (fXIa-Gly184) (human) (UniProt P03951); test: inhibition of chromogenic substrate

recombinant wild type factor XI zymogen (fXIWT) (natural protein)
stoichiometry N [1]: 2

recombinant factor XI zymogen with Arg184 replaced with Gly (fXI-Gly184) (natural protein)
stoichiometry N [2]: 2

factor IXα (fIXα), fIX cleaved at the Arg145-Ala146 bond (natural protein)
Ki1 (k-3/k3, fIXα released after the cleavage at Arg145) [3]: 0.4 µM | Ki1 (k-3/k3, fIXα released after the cleavage at Arg145) [4]: 6 µM | Km2 for cleavage after Arg180 (KinTek fit of progress curves) [5]: 0.2 µM | Km2 for cleavage after Arg180 (KinTek fit of progress curves) [6]: 3 µM

recombinant wild type factor IX (fIXWT) (from UniProt P00740 47-461) (natural protein)
Kd [7]: 0.35 µM

factor IXaβ (fIXaβ), fIX cleaved at Arg145-Ala146 and Arg180-Val181 (enzyme)
Ki [8]: 0.09 µM | Ki [9]: 0.19 µM | Ki [3]: 0.5 µM | Ki [4]: 0.29 µM
